Here are results for 31 sequences from the supplement of paper PMC9170038.

The test system of this series is MS2 coat protein. Briefly: apparent KD of MS2 coat protein; designed switch direction (-1 OFF switch, 1 ON switch): -1; higher = weaker reporter binding. The essentials:
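Transcription of designed RNA switches on Illumina chips was done by stalled E. coli RNA polymerase. SNAP-549-labelled MS2 coat protein was then titrated in doubling steps from 0.7 or 1.5 nM to 3 µM, with steps of 0.8–1.5 h at the lowest and 10–20 min at the highest concentration. The per-design median over clusters of curve-fitted normalised fluorescence is reported as apparent KD.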

The mark [1] stands for this setting: input ligand: microRNA oligo, concentration not stated.
Setting [2] is: Eterna round: R95, input ligand: FMN 200 uM.
Setting [3] is: Eterna round: R95, input ligand: microRNA oligo, concentration not stated.
[4] abbreviates: Eterna round: R95, input ligand: none.

For the sequence “AGUAUGUCAGGAUAUCUCGGGUAGUCGACAACGGCUACCGAAGAGAAGGGACAUGAGGAUCACCCAUGUACCAU [EX4 B.26] (Eterna round: R97, puzzle: Exclusion 4)”, the “apparent KD of MS2 coat protein” value reads like this: (input ligand: FMN 200 uM) 28.3 nM; (input ligand: none) 24.9 nM.
Take “AGUCAGGCGGUAGGAUAUCCAAAUCGAGUGACCCUCUCAUAACAUGAGGAUCACCCAUGUCGGUGGGAGAAGGGCCGUAAGGCG [Mat - Exclusion NG 2 - Mod of JL - D63] (Eterna round: R96, puzzle: Exclusion NG 2)”: the “apparent KD of MS2 coat protein” value was 48.2 nM (input ligand: FMN 200 uM), 25.8 nM under setting [1] and 29.5 nM (input ligand: none).
For “AGUGCGUCAGGAUAUUCUAUUAAUUACAUGAGGAUCACCCAUGUGAAUGGACAAGGGUGUGAAGAAGGGACGUGCG [Omei Ex5 A17g] (Eterna round: R97, puzzle: Exclusion 5)”, the “apparent KD of MS2 coat protein” value runs as follows: (input ligand: FMN 200 uM) 360 nM; (input ligand: none) 872 nM.
In the case of “AGUGUGUGGCAGGAUAUGCAAUUAAUAGGUGAAGCAGAAGGGUCUACAUGAGGAUCACCCAUGUAUGCGGUUGA [Ex6 #23] (Eterna round: R97, puzzle: Exclusion 6)”, the “apparent KD of MS2 coat protein” value stood at 297 nM (input ligand: FMN 200 uM) and 68.5 nM (input ligand: none).
For “AGUGUGUGGCAGGAUAUGCGAUUUGUAAGUGUUGCAGAAGGGUCUACAUGAGGAUCACCCAUGUGUGCGGUUGA [Ex6 #13] (Eterna round: R97, puzzle: Exclusion 6)”, in that order: 658 nM and 516 nM.
Regarding “AGUGUGUGGCAGGAUAUGCUGUUGAUUGGUGGAGCAGAAGGGUCUACAUGAGGAUCACCCAUGUAAGCGGUUGA [Ex6 #30] (Eterna round: R97, puzzle: Exclusion 6)”, the “apparent KD of MS2 coat protein” value (input ligand: FMN 200 uM) turned out to be 125 nM and the “apparent KD of MS2 coat protein” value (input ligand: none) was 36.5 nM.
On the same counts, the results for “AGUUAGAUAGGAUAUGCCCGAGAUAACAUGAGGAUCACCCAUGUGACCGAGUCUAUUCUAGCAGAAGGGUUUAUGA [Mod of ViennaUCT 20 - Jieux - Exclusion 5] (Eterna round: R97, puzzle: Exclusion 5)” are 17.8 nM and 18.3 nM.
For “AGUUAUGCAGGAUAUUGCGGGCCAGACAUGAGGAUCACCCAUGUGUGGGAGUCCUGCGCGCGAGAAGGGCAGACAA [EX5 B.22] (Eterna round: R97, puzzle: Exclusion 5)”, in that order: 28.9 nM and 20.4 nM.
For “AGUUCACAUGAGGAUCACCCAUGUGAGGAUAUGGUUUCGCUGGCCGUAGCCAGUGGAACCAGAAGGCGCGUGAU [Mat - Exclusion 1 - JL Mod - D15] (Eterna round: R97, puzzle: Exclusion 1)”, in that order: 52.1 nM and 51 nM.
In the case of “AGUUGGCGAGGAUAUACAUGAGGAUCACCCAUGUAUGAGAUAAAAGUGAGGUAAAUAUGUAGAAGGCGCUGACA [JR_Ex3_Sub078] (Eterna round: R97, puzzle: Exclusion 3)”, the “apparent KD of MS2 coat protein” value was determined as 897 nM (input ligand: FMN 200 uM) and 107 nM (input ligand: none).
For the sequence “AGUUGGCGAGGAUAUACAUGAGGAUCACCCAUGUGAGAGAUACUAGUGAGGUCGAUGAGUAGAAGGCGCUGACA [Mat X3R4 m18] (Eterna round: R97, puzzle: Exclusion 3)”, the “apparent KD of MS2 coat protein” value reads like this: (input ligand: FMN 200 uM) 186 nM; (input ligand: none) 142 nM.
On to “AGUUGGCGAGGAUAUACAUGAGGAUCACCCAUGUGAGAGAUACUAGUGAGGUCGAUUGGUAGAAGGCGCUGACG [Mat - Exclusion 3 - Mod of JL D79] (puzzle: Exclusion 3)”, for which the “apparent KD of MS2 coat protein” value is 222 nM under setting [2], 104 nM under setting [3] and 151 nM under setting [4].
Take “AGUUGGCGAGGAUAUACAUGAGGAUCACCCAUGUGGGAGAUACUAGUGAGGUCGAUUAGUAGAAGGCGCUGACA [Mat X3R4 m8] (Eterna round: R97, puzzle: Exclusion 3)”: the “apparent KD of MS2 coat protein” value (input ligand: FMN 200 uM) turned out to be 566 nM and the “apparent KD of MS2 coat protein” value (input ligand: none) is 209 nM.
Consider “AGUUGUGUCAAGGAUAUGCAGUCUAACGACGGAGCAGAAGGUGACACUUGAGGAUCACCCAAGUGAACCAAAAU [Bisoreis] (Eterna round: R97, puzzle: Exclusion 6)”, for which the “apparent KD of MS2 coat protein” value (input ligand: FMN 200 uM) was determined as 393 nM and the “apparent KD of MS2 coat protein” value (input ligand: none) was found to be 57.5 nM.
For “AGUUGUUCAGGAUAUGAUGUAUGUUACAUGAGGAUCACCCAUGUAGGUCCUGGAUAUGUAUCAGAAGGGAAUAUCU [JR_Ex5_Sub059] (Eterna round: R97, puzzle: Exclusion 5)”, in that order: 40.8 nM and 32 nM.
For the sequence “AGUUGUUGUUUCCGUUCUUACAUGAGGAUCACCCAUGUUUCUUGUCGUGCUCGCGUUGCUCGUCUGACUACCUGUUG [salish99_TOv1_r3_067] (puzzle: Sensor v3, turn-off variant 1)”, the “apparent KD of MS2 coat protein” value stood at 52.5 nM under setting [2], 40.3 nM under setting [3] and 68.1 nM under setting [4].
On to “AGUUGUUGUUUCCGUUCUUACAUGAGGAUCACCCAUGUUUCUUGUCGUGCUCGCGUUGCUCGUCUGGCUGCCUGUUG [salish99_TOv1_r3_069] (Eterna round: R96, puzzle: Sensor v3, turn-off variant 1)”, for which the “apparent KD of MS2 coat protein” value is, setting by setting: (input ligand: FMN 200 uM) 47 nM; under setting [1], 28 nM; (input ligand: none) 46.4 nM.
As for “AGUUGUUGUUUCCGUUCUUACAUGAGGAUCACCCAUGUUUCUUGUCGUGCUCGCGUUGCUCGUCUGGCUGCCUGUUG [salish99_TOv1_r3_069] (puzzle: Sensor v3, turn-off variant 1)”, the “apparent KD of MS2 coat protein” value runs as follows: under setting [2], 40.7 nM; under setting [3], 35.2 nM; under setting [4], 53.3 nM.
Consider “AUAAAACAUGAGGAUCACCCAUGUGAGGAUAUACGACUCCAACCUAACAGCUUGGACCGUAGAAGGCACAAGGG [Exclusion 1 (MOD3.2 Esqu)] (Eterna round: R97, puzzle: Exclusion 1)”, for which the “apparent KD of MS2 coat protein” value is, setting by setting: (input ligand: FMN 200 uM) 137 nM; (input ligand: none) 159 nM.
For the sequence “AUAAAAUAGGAGGAUAUCGUAUCGGAAACGAUACGAGAAGGUCUAACAUGAGGAUCACCCAUGUUCCUCAAUAA [Mat - Exclusion 6 - Eli Mod - D46] (puzzle: Exclusion 6)”, the “apparent KD of MS2 coat protein” value is, setting by setting: under setting [2], 142 nM; under setting [3], 36.3 nM; under setting [4], 37.6 nM.
On to “AUAAACGCAGGAUAUACAUGAGGAUCACCCAUGUAAAUUUUAAAAUAAAUAAAUAGAUGUAGAAGGGCGAAAUA [Lollin - Gamma 1] (puzzle: Exclusion 3)”, for which the “apparent KD of MS2 coat protein” value under setting [2] came out at 37 nM, the “apparent KD of MS2 coat protein” value under setting [3] is 28.2 nM and the “apparent KD of MS2 coat protein” value under setting [4] turned out to be 33.5 nM.
Take “AUAAAGCAAGGAUAUACAUGAGGAUCACCCAUGUAUGAAAGUUGGCCGCGGUUUAGAUGUAGAAGGUGCAAGGG [EX3 B.8] (Eterna round: R97, puzzle: Exclusion 3)”: the “apparent KD of MS2 coat protein” value worked out at 27.6 nM (input ligand: FMN 200 uM) and 28.1 nM (input ligand: none).
On to “AUAAGAAAGGCAGGAUAUUGUGCACCCUAGUGACAAGAAGGGCCAGGGUGUGCGCUCCACAUGAGGAUCACCCAUGUUAGAAAG [Berimate] (Eterna round: R96, puzzle: Exclusion NG 1)”, for which the “apparent KD of MS2 coat protein” value (input ligand: FMN 200 uM) amounted to 26.4 nM, the “apparent KD of MS2 coat protein” value under setting [1] amounted to 27 nM and the “apparent KD of MS2 coat protein” value (input ligand: none) was 29.3 nM.
For “AUAAGCUUUGAUAUCCUUAACAUGAGGAUCACCCAUGUUCGUCUUAUGAUGGUCUGAUCCCUGAGGAUCGGACCGUU [JL-sv1-2.06 Brourd Mod] (puzzle: Sensor v3, turn-off variant 1)”, the “apparent KD of MS2 coat protein” value was 34.4 nM under setting [2], 88.4 nM under setting [3] and 33.1 nM under setting [4].
For the sequence “AUAAGGUCAGGAUAUGCUUGGCUGAUUCUGGUGUCCAAAUGACAUGAGGAUCACCCAUGUAGAAGGGACAUCAG [Usgeledi] (Eterna round: R97, puzzle: Exclusion 2)”, the “apparent KD of MS2 coat protein” value turned out to be 16.1 nM (input ligand: FMN 200 uM) and 15.1 nM (input ligand: none).
For the sequence “AUAAUACAUGUAGGAUAUGCGUGGCGAAGCUAUGCAGAAGGACAUGAGGAUCACCCAUGUUCUAGCGUCUGCGUACAGAUGCUA [JL eng1 1.35 mod 1] (Eterna round: R96, puzzle: Exclusion NG 1)”, the “apparent KD of MS2 coat protein” value by setting is: (input ligand: FMN 200 uM) 37.3 nM; under setting [1], 14 nM; (input ligand: none) 18.1 nM.
In the case of “AUAAUGCAAGCAUGGUCCCACAUGAGGAUCACCCAUGUGUUCGUCUUAUAGGCUGCUGUGGCUUUUGCCUCGUUGGC [LRO Sensor-off var1-10 loose mod of D91 from Mat747] (Eterna round: R97, puzzle: Sensor, turn-off variant 1)”, the “apparent KD of MS2 coat protein” value runs as follows: (input ligand: FMN 200 uM) 74.3 nM; (input ligand: none) 78.5 nM.
On the same counts, the results for “AUAAUGUCAGGAUAUCAGACGUACAGCUUCGGCUGUACGUCUGAGAAGGGACAUGAGGAUCACCCAUGUGAUUA [E4/3-A1] (Eterna round: R97, puzzle: Exclusion 4)” are 224 nM and 940 nM.
For “AUAAUGUCAGGAUAUCAGUCGUACAGCCUCGGCUGUACGACUGAGAAGGGACAUGAGGAUCACCCAUGUGGUCA [E4/6-A2] (Eterna round: R97, puzzle: Exclusion 4)”, in that order: 42.4 nM and 155 nM.
For the sequence “AUAAUGUGAGGAUAUCAGUCGACUAGCCUCGGCUAGUCGACUGAGAAGGCACAUGAGGAUCACCCAUGUAGAUC [E4/17-A2] (Eterna round: R97, puzzle: Exclusion 4)”, the “apparent KD of MS2 coat protein” value amounted to 75.8 nM (input ligand: FMN 200 uM) and 825 nM (input ligand: none).
As for “AUACCACGAGGAUAUCGUCUCUCCCACAUGAGGAUCACCCAUGUUAUCCAUGUUUCGUUUCGAGAAGGCGUGGGUU [JR_E5_Sub072] (puzzle: Exclusion 5)”, the “apparent KD of MS2 coat protein” value under setting [3] worked out at 58.7 nM.
